Measurements as given in paper PMC9482650, “Quantitative fragmentomics allow affinity mapping of interactomes” (Nature Communications, 2022).

Key:
Assay in all cases: holdup assay
Parameters in all cases: key: below the threshold = too weak to quantify, mostly under pKd 3.1 to 4
Details in all cases: plain residues with an end cap or a label only (N-terminal biotin on a linker: ado-ado)
[1] = molecular target: NHERF4_2, Q86UT5
[2] = molecular target: NHERF2_2, Q15599
[3] = molecular target: MAGI2_3, Q86UL8
[4] = molecular target: T1, MPDZ_5, O75970
T1 sequence (O75970 695-796, limits assumed, looked up): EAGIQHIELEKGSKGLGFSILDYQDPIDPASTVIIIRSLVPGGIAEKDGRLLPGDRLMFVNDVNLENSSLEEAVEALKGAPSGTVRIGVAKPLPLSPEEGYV

[5] = molecular target: T2, MPDZ_10, O75970
T2 sequence (O75970 1624-1722, limits assumed, looked up): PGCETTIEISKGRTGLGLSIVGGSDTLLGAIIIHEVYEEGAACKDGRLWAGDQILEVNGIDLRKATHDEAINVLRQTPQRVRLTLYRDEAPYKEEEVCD

[6] = molecular target: T3, ARHGAP21, Q5T5U3
T3 sequence (Q5T5U3 45-169, limits assumed, looked up): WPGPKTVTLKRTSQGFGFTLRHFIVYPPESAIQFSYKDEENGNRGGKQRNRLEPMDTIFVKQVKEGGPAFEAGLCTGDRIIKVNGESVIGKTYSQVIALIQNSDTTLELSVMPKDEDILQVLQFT

[7] = molecular target: MAGI3_2, Q5TCQ9
[8] = molecular target: T4, GRIP1_7, Q9Y3R0
T4 sequence (Q9Y3R0 999-1096, limits assumed, looked up): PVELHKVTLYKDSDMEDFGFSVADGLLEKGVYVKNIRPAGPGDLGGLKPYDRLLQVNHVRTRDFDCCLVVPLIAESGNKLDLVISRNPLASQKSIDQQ

[9] = molecular target: T5, MPP6, Q9NZW5
T5 sequence (Q9NZW5 125-219, limits assumed, looked up): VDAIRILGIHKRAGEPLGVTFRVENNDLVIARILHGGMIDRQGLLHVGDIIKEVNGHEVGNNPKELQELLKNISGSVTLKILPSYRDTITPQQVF

[10] = molecular target: T6, APBA2_2, Q99767
T6 sequence (Q99767 654-744, limits assumed, looked up): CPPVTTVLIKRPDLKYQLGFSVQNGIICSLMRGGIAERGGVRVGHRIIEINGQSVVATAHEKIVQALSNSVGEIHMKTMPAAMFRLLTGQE

[11] = molecular target: T7, SNTG2, Q9NY99
T7 sequence (Q9NY99 68-166, limits assumed, looked up): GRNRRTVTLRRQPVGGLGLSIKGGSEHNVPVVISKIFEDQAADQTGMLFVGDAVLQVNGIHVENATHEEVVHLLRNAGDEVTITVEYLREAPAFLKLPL

[12] = molecular target: T8, PCLO, Q9Y6V0
T8 sequence (Q9Y6V0 4491-4600, limits assumed, looked up): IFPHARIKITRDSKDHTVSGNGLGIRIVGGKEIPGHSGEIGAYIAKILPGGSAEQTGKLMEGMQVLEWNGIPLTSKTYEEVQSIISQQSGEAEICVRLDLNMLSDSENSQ

[13] = molecular target: SCRIB_2, Q14160
[14] = molecular target: DLG1_3, Q12959
[15] = molecular target: GRIP2_4, Q9C0E4
[16] = molecular target: GRIP2_3, Q9C0E4
[17] = molecular target: T9, MPP2, Q14168
T9 sequence (Q14168 180-250, limits assumed, looked up): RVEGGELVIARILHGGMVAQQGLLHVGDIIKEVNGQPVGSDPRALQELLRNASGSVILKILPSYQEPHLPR

[18] = molecular target: MAGI2_6, Q86UL8
[19] = molecular target: GRIP2_5, Q9C0E4
[20] = molecular target: T10, MPP7, Q5T2T1
T10 sequence (Q5T2T1 134-230, limits assumed, looked up): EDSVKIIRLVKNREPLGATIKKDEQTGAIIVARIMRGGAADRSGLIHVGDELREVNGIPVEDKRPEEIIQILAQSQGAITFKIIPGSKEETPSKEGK

[21] = molecular target: LNX1_1, Q8TBB1
[22] = molecular target: DLG1_1, Q12959
[23] = molecular target: T11, APBA1_2, Q02410
T11 sequence (Q02410 742-832, limits assumed, looked up): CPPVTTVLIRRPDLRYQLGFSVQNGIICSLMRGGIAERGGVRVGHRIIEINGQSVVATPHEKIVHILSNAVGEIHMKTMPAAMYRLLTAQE

[24] = molecular target: LAP2, Q96RT1
[25] = molecular target: IL16_1, Q14005
[26] = molecular target: T12, HTRA4, P83105
T12 sequence (P83105 378-476, limits assumed, looked up): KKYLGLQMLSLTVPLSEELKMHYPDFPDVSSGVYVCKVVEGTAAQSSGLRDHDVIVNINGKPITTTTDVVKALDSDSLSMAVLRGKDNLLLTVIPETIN

Sequence of SCRIB_2, Q14160 (Q14160 857-960): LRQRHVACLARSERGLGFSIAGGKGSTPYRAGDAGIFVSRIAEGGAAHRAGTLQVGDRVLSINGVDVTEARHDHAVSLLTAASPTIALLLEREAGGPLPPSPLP
Sequence of MAGI3_2, Q5TCQ9 (Q5TCQ9 398-503): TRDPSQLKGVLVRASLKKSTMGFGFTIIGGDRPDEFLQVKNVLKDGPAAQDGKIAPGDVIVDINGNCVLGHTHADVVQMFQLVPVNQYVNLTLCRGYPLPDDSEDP
Sequence of MAGI2_6, Q86UL8 (Q86UL8 1141-1229): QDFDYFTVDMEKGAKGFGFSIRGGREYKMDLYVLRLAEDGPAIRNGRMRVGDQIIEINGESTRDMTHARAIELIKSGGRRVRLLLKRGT
Sequence of NHERF4_2, Q86UT5 (Q86UT5 220-308): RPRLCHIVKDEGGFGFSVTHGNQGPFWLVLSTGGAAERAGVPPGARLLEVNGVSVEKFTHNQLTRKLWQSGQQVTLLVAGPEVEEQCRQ
Sequence of GRIP2_3, Q9C0E4 (Q9C0E4 238-339): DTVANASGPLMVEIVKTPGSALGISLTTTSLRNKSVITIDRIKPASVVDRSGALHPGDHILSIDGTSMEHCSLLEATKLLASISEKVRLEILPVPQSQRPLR
Sequence of LNX1_1, Q8TBB1 (Q8TBB1 261-371): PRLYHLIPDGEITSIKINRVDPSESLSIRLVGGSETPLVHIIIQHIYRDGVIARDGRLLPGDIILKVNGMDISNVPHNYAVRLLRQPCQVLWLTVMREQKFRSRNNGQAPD
Sequence of GRIP2_4, Q9C0E4 (Q9C0E4 446-548): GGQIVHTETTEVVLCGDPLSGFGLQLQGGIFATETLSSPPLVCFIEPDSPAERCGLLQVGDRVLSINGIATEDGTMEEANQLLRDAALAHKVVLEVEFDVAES
Sequence of NHERF2_2, Q15599 (Q15599 142-238): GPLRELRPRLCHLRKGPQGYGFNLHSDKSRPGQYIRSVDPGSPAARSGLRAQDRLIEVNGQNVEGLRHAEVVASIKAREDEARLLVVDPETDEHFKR
Sequence of LAP2, Q96RT1 (Q96RT1 other isoform, or with tags, fused parts or gaps): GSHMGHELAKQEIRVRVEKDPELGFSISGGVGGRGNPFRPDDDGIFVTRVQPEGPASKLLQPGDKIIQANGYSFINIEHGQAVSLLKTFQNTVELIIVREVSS
Sequence of GRIP2_5, Q9C0E4 (Q9C0E4 544-642): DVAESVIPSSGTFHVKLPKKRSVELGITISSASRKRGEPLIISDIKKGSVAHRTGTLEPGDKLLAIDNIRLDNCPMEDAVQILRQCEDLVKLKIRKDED
Sequence of IL16_1, Q14005 (Q14005 210-306): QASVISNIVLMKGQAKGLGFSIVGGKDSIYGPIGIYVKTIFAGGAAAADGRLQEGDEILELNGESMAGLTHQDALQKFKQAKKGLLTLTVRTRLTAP
Sequence of MAGI2_3, Q86UL8 (Q86UL8 600-682): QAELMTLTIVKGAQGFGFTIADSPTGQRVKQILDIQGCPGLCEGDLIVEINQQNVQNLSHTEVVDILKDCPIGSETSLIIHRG

Q: Which pKd [1] does the source give for NRVDSKETEC [ADAM17, P78536] here?
A: below the threshold

Q: What about the pKd [2] of the same binder?
A: below the threshold

Q: What about the pKd [3] of the same binder?
A: 3.64

Q: And the pKd [4]?
A: below the threshold

Q: What about the pKd [5] of the same binder?
A: below the threshold

Q: What about the pKd [6] of the same binder?
A: below the threshold

Q: What about the pKd [7] of the same binder?
A: below the threshold

Q: What about the pKd [8] of the same binder?
A: below the threshold

Q: And the pKd [9]?
A: below the threshold

Q: What about the pKd [10] of the same binder?
A: below the threshold

Q: What about the pKd [11] of the same binder?
A: 4.06

Q: And the pKd [12]?
A: below the threshold

Q: What about the pKd [13] of the same binder?
A: below the threshold

Q: And the pKd [14]?
A: 3.71

Q: And the pKd [15]?
A: below the threshold

Q: What about the pKd [16] of the same binder?
A: below the threshold

Q: And the pKd [17]?
A: below the threshold

Q: And the pKd [18]?
A: 4.06

Q: What about the pKd [19] of the same binder?
A: below the threshold

Q: And the pKd [20]?
A: 3.65

Q: What about the pKd [21] of the same binder?
A: below the threshold

Q: What about the pKd [22] of the same binder?
A: 4.32

Q: And the pKd [23]?
A: below the threshold

Q: And the pKd [24]?
A: below the threshold

Q: And the pKd [25]?
A: below the threshold

Q: And the pKd [26]?
A: below the threshold

Q: Which pKd [1] does the source give for LDKESFLTWL [YAP1, P46937] here?
A: below the threshold

Q: And the pKd [2]?
A: 5.19

Q: And the pKd [3]?
A: below the threshold

Q: What about the pKd [4] of the same binder?
A: below the threshold

Q: What about the pKd [5] of the same binder?
A: below the threshold

Q: What about the pKd [6] of the same binder?
A: 4.89

Q: And the pKd [7]?
A: 4.75

Q: And the pKd [8]?
A: below the threshold

Q: And the pKd [9]?
A: below the threshold

Q: And the pKd [10]?
A: below the threshold

Q: And the pKd [11]?
A: below the threshold

Q: What about the pKd [12] of the same binder?
A: 3.57

Q: What about the pKd [13] of the same binder?
A: below the threshold

Q: What about the pKd [14] of the same binder?
A: below the threshold

Q: And the pKd [15]?
A: below the threshold

Q: And the pKd [16]?
A: below the threshold

Q: And the pKd [17]?
A: below the threshold

Q: And the pKd [18]?
A: 4.82

Q: And the pKd [19]?
A: below the threshold

Q: And the pKd [20]?
A: 3.72

Q: And the pKd [21]?
A: 4.25

Q: What about the pKd [22] of the same binder?
A: 4.01

Q: And the pKd [23]?
A: 4.88

Q: What about the pKd [24] of the same binder?
A: 4.2

Q: And the pKd [25]?
A: 3.55

Q: And the pKd [26]?
A: 4.65

Q: For RDFDYIADWC [PKN2, Q16513], which pKd [1] is on record?
A: below the threshold

Q: And the pKd [2]?
A: below the threshold

Q: What about the pKd [3] of the same binder?
A: below the threshold

Q: And the pKd [4]?
A: below the threshold

Q: And the pKd [5]?
A: 3.87

Q: What about the pKd [6] of the same binder?
A: 3.71

Q: And the pKd [7]?
A: below the threshold

Q: What about the pKd [8] of the same binder?
A: below the threshold

Q: And the pKd [9]?
A: below the threshold

Q: What about the pKd [10] of the same binder?
A: below the threshold

Q: What about the pKd [11] of the same binder?
A: below the threshold

Q: And the pKd [12]?
A: below the threshold

Q: And the pKd [13]?
A: below the threshold

Q: What about the pKd [14] of the same binder?
A: below the threshold

Q: And the pKd [15]?
A: below the threshold

Q: What about the pKd [16] of the same binder?
A: below the threshold

Q: What about the pKd [17] of the same binder?
A: 3.49

Q: What about the pKd [18] of the same binder?
A: 3.77

Q: And the pKd [19]?
A: below the threshold

Q: What about the pKd [20] of the same binder?
A: below the threshold

Q: And the pKd [21]?
A: below the threshold

Q: What about the pKd [22] of the same binder?
A: below the threshold

Q: What about the pKd [23] of the same binder?
A: 3.82

Q: What about the pKd [24] of the same binder?
A: 4.01

Q: What about the pKd [25] of the same binder?
A: below the threshold

Q: What about the pKd [26] of the same binder?
A: 4.9

Q: For VRPGVKESLV [SCN4A, P35499], which pKd [1] is on record?
A: below the threshold

Q: And the pKd [2]?
A: below the threshold

Q: What about the pKd [3] of the same binder?
A: 4.51

Q: And the pKd [4]?
A: below the threshold

Q: And the pKd [5]?
A: below the threshold

Q: What about the pKd [6] of the same binder?
A: below the threshold

Q: And the pKd [7]?
A: 5.52

Q: And the pKd [8]?
A: below the threshold

Q: What about the pKd [9] of the same binder?
A: 3.67

Q: And the pKd [10]?
A: below the threshold

Q: What about the pKd [11] of the same binder?
A: 4.77

Q: What about the pKd [12] of the same binder?
A: below the threshold

Q: What about the pKd [13] of the same binder?
A: 4.18

Q: And the pKd [14]?
A: 3.97

Q: What about the pKd [15] of the same binder?
A: below the threshold

Q: And the pKd [16]?
A: below the threshold

Q: What about the pKd [17] of the same binder?
A: below the threshold

Q: What about the pKd [18] of the same binder?
A: 3.93

Q: What about the pKd [19] of the same binder?
A: below the threshold

Q: And the pKd [20]?
A: below the threshold

Q: What about the pKd [21] of the same binder?
A: 3.89

Q: What about the pKd [22] of the same binder?
A: 4.71

Q: And the pKd [23]?
A: below the threshold

Q: What about the pKd [24] of the same binder?
A: 3.99

Q: What about the pKd [25] of the same binder?
A: 4.78

Q: What about the pKd [26] of the same binder?
A: below the threshold
